US20030166587
Numbering of substitutions follows the chain as printed.

T1: IKK-phosphorylated IκBα in the IκBα/NF-κB complex
T1 chain: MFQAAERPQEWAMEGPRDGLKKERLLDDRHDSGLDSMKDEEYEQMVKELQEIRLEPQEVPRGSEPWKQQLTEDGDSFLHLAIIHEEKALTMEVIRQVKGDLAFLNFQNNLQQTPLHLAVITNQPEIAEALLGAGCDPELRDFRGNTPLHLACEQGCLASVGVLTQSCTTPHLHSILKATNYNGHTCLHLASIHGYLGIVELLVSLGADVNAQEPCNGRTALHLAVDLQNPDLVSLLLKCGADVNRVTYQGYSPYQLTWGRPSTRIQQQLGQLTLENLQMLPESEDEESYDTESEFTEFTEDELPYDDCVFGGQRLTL

B1: human β-TrCP, FLAG-tagged (protein)
chain: MDPAEAVLQEKALKFMNSSEREDCNNGEPPRKIIPEKNSLRQTYNSCARLCLNQETVCLASTAMKTENCVAKTKLANGTSSMIVPKQRKLSASYEKEKELCVKYFEQWSESDQVEFVEHLISQMCHYQHGHINSYLKPMLQRDFITALPARGLDHIAENILSYLDAKSLCAAELVCKEWYRVTSDGMLWKKLIERMVRTDSLWRGLAERRGWGQYLFKNKPPDGNAPPNSFYRALYPKIIQDIETIESNWRCGRHSLQRIHCRSETSKGVYCLQYDDQKIVSGLRDNTIKIWDKNTLECKRILTGHTGSVLCLQYDERVIITGSSDSTVRVWDVNTGEMLNTLIHHCEAVLHLRFNNGMMVTCSKDRSIAVWDMASPTDITLRRVLVGHRAAVNVVDFDDKYIVSASGDRTIKVWNTSTCEFVRTLNGHKRGIACLQYRDRLVVSGSSDNTIRLWDIECGACLRVLEGHEELVRCIRFDNKRIVSGAYDGKIKVWDLVAALDPRAPAGTLCLRTLVEHSGRVFRLQFDEFQIVSSSHDDTILIWDFLNDPAAQAEPPRSPSRTYTYISR
B2: mouse β-TrCP, FLAG-tagged (protein)
chain: B1 chain with L52I, A60T, T73A, G224E, N295S, T336A, V498M, Q553H
B3: human β-TrCP with a deletion of the F box region residues 122-168, FLAG-tagged (protein)
chain: MDPAEAVLQEKALKFMNSSEREDCNNGEPPRKIIPEKNSLRQTYNSCARLCLNQETVCLASTAMKTENCVAKTKLANGTSSMIVPKQRKLSASYEKEKELCVKYFEQWSESDQVEFVEHLISQMCHYQHGHINSYLKPMLQRDFITERMVRTDSLWRGLAERRGWGQYLFKNKPPDGNAPPNSFYRALYPKIIQDIETIESNWRCGRHSLQRIHCRSETSKGVYCLQYDDQKIVSGLRDNTIKIWDKNTLECKRILTGHTGSVLCLQYDERVIITGSSDSTVRVWDVNTGEMLNTLIHHCEAVLHLRFNNGMMVTCSKDRSIAVWDMASPTDITLRRVLVGHRAAVNVVDFDDKYIVSASGDRTIKVWNTSTCEFVRTLNGHKRGIACLQYRDRLVVSGSSDNTIRLWDIECGACLRVLEGHEELVRCIRFDNKRIVSGAYDGKIKVWDLVAALDPRAPAGTLCLRTLVEHSGRVFRLQFDEFQIVSSSHDDTILIWDFLNDPAAQAEPPRSPSRTYTYISR

Biological target: T1, IKK-phosphorylated IκBα in the …

Protein | in vitro ubiquitination of pIκBα in the presence of E1 and E2 (UBC5C)
B1 | the wild type β-TrCP proteins facilitated the ubiquitination of pIκBα, but not of the non-phosphorylated IκBα
B2 | the wild type β-TrCP proteins facilitated the ubiquitination of pIκBα, but not of the non-phosphorylated IκBα
B3 | failed to promote ubiquitination (lanes 7 and 8), in spite of its binding capacity
